From patent publication US20160176984A1 (published 2016)
Positions count from the first letter of the chain named.

B1: human soluble CD64 (receptor, UniProt P12314 16-288, looked up)
chain: QVDTTKAVITLQPPWVSVFQEETVTLHCEVLHLPGSSSTQWFLNGTATQTSTPSYRITSASVNDSGEYRCQRGLSGRSDPIQLEIHRGWLLLQVSSRVFTEGEPLALRCHAWKDKLVYNVLYYRNGKAFKFFHWNSNLTILKTNISHNGTYHCSGMGKHRYTSAGISVTVKELFPAPVLNASVTSPLLEGNLVTLSCETKLLLQRPGLQLYFSFYMGSKTLRGRNTSSEYQILTARREDSGLYWCEAATEDGNVLKRSPELELQVLGLQLPTP
notes: also called CD64 (R&D Systems)
B2: ABEFs0101 (designed binder)
chain: EPKSCDKTHTCPPCPAPELLGGPSVFLFPPKPKDTLMISRTPEVTCVVVDVSHEDPEVKFNWYVDGVEVHNAKTKPREEQYNSTYRVVSVLTVLHQDWLNGKEYKCKVSNKALPAPIEKTISKAKGQPREPQVYTLPPSRDEYLHGDVSLTCLVKGFYPSDIAVEWESNGQPENNYKTTPPVLDSDGSFFLYSKLTVARYSPSMWRWGHGNVFSCSVMHEALHNHYTQKSLSLSPGK
notes: The EF loop is given with 13 residues under 'AA198ff'
B3: H10-03-6 (designed binder)
chain: B2 chain with A198P, Y200H, P202A, S203R, G208A
notes: Soluble Fcab; The EF loop is given with 13 residues under 'AA198ff'; also called H10-03-6 clone

Assays:
[1] = target: T1, Fcab wt expressed on yeast (human, UniProt P0DOX5 218-449 = IgG part); test: FACS of yeast-displayed Fcab wt, CD64 staining
T1 construct: also called non-randomized Fc fragments (Fcab wt) expressed on yeast; not shown: Aga2 display fusion partner of the pYD1-derived vector

[2] = target: T2, wild type Fcab (human, UniProt P0DOX5 218-449 = IgG part); test: SPR (Biacore), Fcab captured on Protein A chip, human soluble CD64 at 5 ug/ml as analyte
T2 construct: also called Fcab wt; wtFcab

[3] = target: T3, Human soluble Her-2 (Bender Med Systems, Austria) (human, UniProt P04626 23-652, limits assumed); test: ELISA, human soluble Her-2 coated at 2 ug/ml, anti-Fc CH2-HRP detection
T3 construct: given only as 'human soluble Her-2'; It was biotinylated (sulfo-LC-LC-biotin) for the yeast FACS selections; also called recombinant antigen Her2 (Bendermedsystems); Her2-biotin
Description: Human soluble Her-2 (Bender Med Systems, Austria) was coated to plastic at 2 μg/ml. After washing and blocking unspecific binding sites, increasing concentrations of Fcabs were added. To detect Her-2 bound Fcabs, anti-Fc CH2 domain specific monoclonal antibodies which were conjugated to horse radish peroxidase (Serotec) were added.

[4] = target: T4, Her-2 on Her-2 over-expressing human breast cancer cell lines SKBR3 and Calu-3 (human, UniProt P04626 23-1255); test: FACS on SKBR3 cells, anti-human Fc-PE detection
T4 construct: whole, on cells; also called Her-2 on SKBR3 cells
Description: (§1) Antigen binding was also determined by SPR. Biacore CM5 chips were coated with different amounts of human soluble Her-2 followed by addition of increasing concentrations of Fcabs. […] Antigen binding was also assessed by FACS using the Her-2 over-expressing human breast cancer cell lines SKBR3 and Calu-3. 1×10⁵ cells were incubated with increasing concentrations of Fcabs for 60 minutes on ice. Then, unbound antibodies were removed by centrifugation and washing. Cell bound Fcabs were detected by incubation with anti-human Fc specific antibodies conjugated to phycoerythrin (Sigma) for 60 minutes on ice. After washing the cells, the intensity of fluorescence on the cell surface was measured in a FACS Calibur instrument (Beckton Dickinson).

[5] = target: T4, Her-2 on Her-2 over-expressing human …; test: cell-based or functional assay
[6] = target: T3, Human soluble Her-2 (Bender Med …); test: assay not stated; told under affinity maturation and FACS selection with Her2
[7] = target: T3, Human soluble Her-2 (Bender Med …); test: SPR (Biacore), human soluble Her-2 on CM5 chip, Fcab as analyte
Description: as §1

Row | Binder | binding result [1] | binding result [2] | EC50 [3] [nM] | EC50 [4] [nM] | SKBR3 cell killing (ADCC with human NK cells, 7-AAD/CFSE FACS), EC50 [5] [nM] | EC50 [6] [nM] | Kd [7] [nM]
1 | B1 | binds | binds | – | – | – | – | –
2 | B2 | – | – | 16.1 | 5.2 | 1 | – | –
3 | B3 | – | – | 4.8 | 10.3 | 1.1 | 18.9 | 8.6
